Laboratory results taken from the supplement of paper PMC9233669.
Variants at the floor of the assay were thinned out.

Tests used:
biotinyl-Phe-oxazolone = assay: self-aminoacylation, catalytic enhancement (BFO) (fold over background); higher = more active; k-Seq, kA / k0A0; sequences stand for … in GGGAAUGGAUCCACAUCUACGAAUUC…UUCACUGCAGACUUGACGAAGCUG
How it was run: (§1)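 Catalytic enhancement equals the median kA over the uncatalyzed rate, the latter read from the low-activity peak of a bimodal Gaussian fit. Values of kA came from fitting each sequence's fraction reacted to a pseudo-first-order model, with 1000 bootstraps. Reacted RNA was captured with streptavidin and quantified by triplicate qPCR and Illumina sequencing after 90 minutes at room temperature with 2–1250 μM biotinyl-aminoacyl-oxazolone and 0.43 μM mutagenized RNA pools bearing a 21-nt variable region.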

biotinyl-Ile-oxazolone = assay: self-aminoacylation, catalytic enhancement (BIO) (fold over background); higher = more active; k-Seq, kA / k0A0; sequences stand for … in GGGAAUGGAUCCACAUCUACGAAUUC…UUCACUGCAGACUUGACGAAGCUG
How it was run: as §1

biotinyl-Met-oxazolone = assay: self-aminoacylation, catalytic enhancement (BMO) (fold over background); higher = more active; k-Seq, kA / k0A0; sequences stand for … in GGGAAUGGAUCCACAUCUACGAAUUC…UUCACUGCAGACUUGACGAAGCUG
How it was run: as §1

biotinyl-Val-oxazolone = assay: self-aminoacylation, catalytic enhancement (BVO) (fold over background); higher = more active; k-Seq, kA / k0A0; sequences stand for … in GGGAAUGGAUCCACAUCUACGAAUUC…UUCACUGCAGACUUGACGAAGCUG
How it was run: as §1

biotinyl-Leu-oxazolone = assay: self-aminoacylation, catalytic enhancement (BLO) (fold over background); higher = more active; k-Seq, kA / k0A0; sequences stand for … in GGGAAUGGAUCCACAUCUACGAAUUC…UUCACUGCAGACUUGACGAAGCUG
How it was run: as §1

biotinyl-Trp-oxazolone = assay: self-aminoacylation, catalytic enhancement (BWO) (fold over background); higher = more active; k-Seq, kA / k0A0; sequences stand for … in GGGAAUGGAUCCACAUCUACGAAUUC…UUCACUGCAGACUUGACGAAGCUG
How it was run: as §1

Sequence | self-aminoacylation (biotinyl-Phe-oxazolone) | self-aminoacylation (biotinyl-Ile-oxazolone) | self-aminoacylation (biotinyl-Met-oxazolone) | self-aminoacylation (biotinyl-Val-oxazolone) | self-aminoacylation (biotinyl-Leu-oxazolone) | self-aminoacylation (biotinyl-Trp-oxazolone)
AAGUCUGCGAAUAGUCGCAAG [Fam3.1 aminoacylation ribozyme variant] | 8.07 | 1 | 1.76 | 0.979 | 1.38 | 1.2
AAGUCUGCUAAUAGACGCAAG [Fam3.1 aminoacylation ribozyme variant] | 1.01 | 0.692 | 0.669 | 0.715 | 0.771 | 0.653
AAGUCUGCUAAUAGUAGCAAG [Fam3.1 aminoacylation ribozyme variant] | 1.42 | 0.968 | 1.24 | 1.08 | 1.44 | 1.67
AAGUCUGCUAAUAGUCACAAG [Fam3.1 aminoacylation ribozyme variant] | 12.6 | 1.24 | 1.95 | 1.25 | 1.3 | 3.73
AAGUCUGCUAAUAGUCGCGAG [Fam3.1 aminoacylation ribozyme variant] | 5.39 | 1.26 | 1.77 | 1.33 | 1.36 | 3.06
AAGUCUGCUAAUAGUCGCUAG [Fam3.1 aminoacylation ribozyme variant] | 3.35 | 0.989 | 0.995 | 0.983 | 1.29 | 1.81
AAGUCUGCUCAUAGUCGCAAG [Fam3.1 aminoacylation ribozyme variant] | 8.38 | 1.16 | 1.29 | 1.18 | 1.08 | 4.23
AAGUCUUCUAAUAGUCGCAAG [Fam3.1 aminoacylation ribozyme variant] | 3.19 | 2.06 | 1.56 | 1.52 | 1.83 | 2.07
AAGUGUGCCAAUAGUCGCAAG [Fam3.1 aminoacylation ribozyme variant] | 2.66 | 2.38 | 1.97 | 1.61 | 1.78 | 1.66
AAGUGUGCUAAUAGUCCCAAG [Fam3.1 aminoacylation ribozyme variant] | 3.77 | 1.34 | 1.17 | 1.28 | 1.24 | 2.02
AAGUGUGCUAAUAGUCGCAAA [Fam3.1 aminoacylation ribozyme variant] | 2.76 | 1.79 | 2.07 | 1.41 | 1.52 | 1.88
AAGUGUGCUAAUAGUCGCACG [Fam3.1 aminoacylation ribozyme variant] | 2.38 | 1.19 | 1.6 | 1.04 | 1.5 | 2.16
AAGUGUGCUAAUAGUCGUAAG [Fam3.1 aminoacylation ribozyme variant] | 28 | 1.54 | 1.69 | 1.12 | 0.899 | 7.72
AAGUGUGCUAAUAGUCUCAAG [Fam3.1 aminoacylation ribozyme variant] | 8.7 | 1.26 | 1.4 | 1.62 | 1.44 | 2.73
AAGUGUUCUAAUAGUCGCAAG [Fam3.1 aminoacylation ribozyme variant] | 2.39 | 1.6 | 1.7 | 1.32 | 1.64 | 1.54
AAGUUAGCUAAUAAUCGCAAG [Fam3.1 aminoacylation ribozyme variant] | 2 | 1.77 | 1.3 | 1.26 | 1.38 | 1.12
AAGUUAGCUAAUAGUCGCAAG [Fam3.1 aminoacylation ribozyme variant] | 5.25 | 1.78 | 1.6 | 1.49 | 1.52 | 2.21
AAGUUAGCUAAUAGUCGCAGG [Fam3.1 aminoacylation ribozyme variant] | 4.27 | 1.76 | 1.6 | 1.8 | 1.62 | 1.77
AAGUUAGCUAAUAGUCGCCAG [Fam3.1 aminoacylation ribozyme variant] | 1.48 | 1.91 | 2.09 | 1.33 | 1.67 | 3.82
AAGUUAGCUAAUAGUCUCAAG [Fam3.1 aminoacylation ribozyme variant] | 2.11 | 1.26 | 1.22 | 1.27 | 0.902 | 1.69
AAGUUCACUAAUAGUCGCAAG [Fam3.1 aminoacylation ribozyme variant] | 2.72 | 1.96 | 1.37 | 1.86 | 1.8 | 2.23
AAGUUCGAUAAUAGUCGCAAG [Fam3.1 aminoacylation ribozyme variant] | 2.51 | 1.44 | 1.39 | 1.28 | 1.55 | 1.33
AAGUUCGCAAAUAGUCGCAAG [Fam3.1 aminoacylation ribozyme variant] | 3.4 | 1.84 | 2.13 | 1.44 | 2.86 | 1.42
AAGUUCGCUAACAGUCGCAAG [Fam3.1 aminoacylation ribozyme variant] | 2.24 | 1.45 | 1.36 | 1.33 | 1.81 | 1.06
AAGUUCGCUAAUAAUCGCAAG [Fam3.1 aminoacylation ribozyme variant] | 1.54 | 1.24 | 1.24 | 1.31 | 1.02 | 0.758
AAGUUCGCUAAUAGUGGCAAG [Fam3.1 aminoacylation ribozyme variant] | 0.484 | 0.737 | 0.601 | 0.56 | 0.8 | 0.444

Sequence | self-aminoacylation (biotinyl-Phe-oxazolone) | self-aminoacylation (biotinyl-Ile-oxazolone) | self-aminoacylation (biotinyl-Met-oxazolone) | self-aminoacylation (biotinyl-Val-oxazolone) | self-aminoacylation (biotinyl-Leu-oxazolone) | self-aminoacylation (biotinyl-Trp-oxazolone)
AAGUUCGCUAAUAUUCGCAAG [Fam3.1 aminoacylation ribozyme variant] | 2.16 | 1.71 | 1.36 | 1.65 | 1.84 | 1.25
AAGUUCGCUAAUGGUCGCAAG [Fam3.1 aminoacylation ribozyme variant] | 4.06 | 1.55 | 1.33 | 1.5 | 1.8 | 1.62
AAGUUCGCUCAUAGUCGCAAG [Fam3.1 aminoacylation ribozyme variant] | 7.56 | 2.23 | 2.01 | 1.77 | 1.96 | 2.26
AAGUUGGAUAAUAGUCGCAAG [Fam3.1 aminoacylation ribozyme variant] | 1.31 | 1.17 | 1.11 | 1.01 | 0.984 | 1.12
AAGUUGGCAAAUAGUCGCAAG [Fam3.1 aminoacylation ribozyme variant] | 2.07 | 1.57 | 1.04 | 1.41 | 1.32 | 2.03
AAGUUGGCGAAUAGUCGCAAG [Fam3.1 aminoacylation ribozyme variant] | 2.86 | 1.78 | 1.64 | 1.78 | 1.51 | 2.72
AAGUUGGCUAAUGGUCGCAAG [Fam3.1 aminoacylation ribozyme variant] | 1.01 | 1.29 | 1.28 | 1.4 | 1.1 | 1.23
AAGUUUACUAAUAGUCACAAG [Fam3.1 aminoacylation ribozyme variant] | 2.55 | 1.74 | 1.33 | 1.44 | 1.33 | 1.39
AAGUUUACUAAUAGUCGCAAA [Fam3.1 aminoacylation ribozyme variant] | 2.01 | 1.95 | 1.44 | 1.61 | 1.35 | 2.06
AAGUUUAUUAAUAGUCGCAAG [Fam3.1 aminoacylation ribozyme variant] | 2.49 | 1.74 | 1.95 | 1.82 | 1.53 | 1.94
AAGUUUCCGAAUAGUCGCAAG [Fam3.1 aminoacylation ribozyme variant] | 2.81 | 2.01 | 1.73 | 1.79 | 1.7 | 1.87
AAGUUUCCUAACAGUCGCAAG [Fam3.1 aminoacylation ribozyme variant] | 1.26 | 1.23 | 0.884 | 1.03 | 0.963 | 0.58
AAGUUUCCUAAUAGUCGCAAA [Fam3.1 aminoacylation ribozyme variant] | 3.59 | 1.99 | 1.74 | 1.43 | 1.99 | 1.96
AAGUUUCCUAAUAGUCGCAAG [Fam3.1 aminoacylation ribozyme variant] | 2.47 | 1.57 | 1.34 | 1.36 | 1.42 | 1.62
AAGUUUCCUAAUCGUCGCAAG [Fam3.1 aminoacylation ribozyme variant] | 1 | 0.879 | 0.973 | 0.893 | 0.896 | 0.618
AAGUUUCCUAAUUGUCGCAAG [Fam3.1 aminoacylation ribozyme variant] | 0.96 | 1.47 | 1.14 | 1.38 | 1.88 | 0.994
AAGUUUCUUAAUAGUCGCAAG [Fam3.1 aminoacylation ribozyme variant] | 3.21 | 1.95 | 1.56 | 1.69 | 1.92 | 1.66
AAGUUUGAUAAAAGUCGCAAG [Fam3.1 aminoacylation ribozyme variant] | 2.15 | 1.51 | 1.64 | 1.22 | 1.13 | 1.46
AAGUUUGAUAAGAGUCGCAAG [Fam3.1 aminoacylation ribozyme variant] | 1.67 | 1.62 | 1.06 | 1.12 | 1.24 | 1.33
AAGUUUGAUAAUACUCGCAAG [Fam3.1 aminoacylation ribozyme variant] | 0.788 | 0.638 | 0.617 | 0.511 | 0.493 | 0.52
AAGUUUGAUAAUAGUCACAAG [Fam3.1 aminoacylation ribozyme variant] | 0.914 | 0.649 | 0.716 | 0.742 | 0.547 | 0.877
AAGUUUGAUAAUAGUCCCAAG [Fam3.1 aminoacylation ribozyme variant] | 0.838 | 0.613 | 0.47 | 0.515 | 0.423 | 0.489
AAGUUUGAUAAUAGUCGCAAA [Fam3.1 aminoacylation ribozyme variant] | 1.22 | 1.18 | 1.08 | 0.975 | 0.997 | 1.04
AAGUUUGAUAAUAGUCGCAAC [Fam3.1 aminoacylation ribozyme variant] | 1.27 | 0.926 | 0.773 | 0.809 | 0.718 | 0.736
AAGUUUGCAAAUAGCCGCAAG [Fam3.1 aminoacylation ribozyme variant] | 0.662 | 1.05 | 0.737 | 1.06 | 0.933 | 1.07
